Data published in patent US20150056133A1 (Boehringer Ingelheim, published 2015).

Assays:
human CCR2 = target: T1, human CCR2 (human, UniProt P41597 1-374); experiment: FACS binding on CHO cells expressing human CCR2, anti-cmyc detection
T1 construct: whole, on cells
Experimental: (§1) Specificity for the hCX3CR1 receptor was evaluated by performing a FACS binding experiment on CHO-K1 parental cells or CHO cells expressing human CCR2, human CCR5 or mouse CX3CR1. The VHHs were incubated with the respective cell lines for 30 minutes at 4° C. followed by three wash steps and subsequently incubated with the detection reagents. As detection, a mouse anti-cmyc antibody (Serotec, MCA2200) followed by a goat anti-mouse antibody coupled to PE (Jackson 115-116-071) was used, each incubation was for 30 minutes at 4° C. and was followed by three wash steps. For each cell line a quality control with receptor-specific antibody was included. In addition, the highest concentration of each VHH was also incubated with CHO cells expressing hCX3CR1 as a positive control. No binding to mouse CX3CR1, human CCR2 or human CCR5 could be observed.

human CCR5 = target: T2, human CCR5 (human, UniProt P51681 1-352); experiment: FACS binding on CHO cells expressing human CCR5, anti-cmyc detection
T2 construct: whole, on cells
T2 sequence (P51681 whole entry): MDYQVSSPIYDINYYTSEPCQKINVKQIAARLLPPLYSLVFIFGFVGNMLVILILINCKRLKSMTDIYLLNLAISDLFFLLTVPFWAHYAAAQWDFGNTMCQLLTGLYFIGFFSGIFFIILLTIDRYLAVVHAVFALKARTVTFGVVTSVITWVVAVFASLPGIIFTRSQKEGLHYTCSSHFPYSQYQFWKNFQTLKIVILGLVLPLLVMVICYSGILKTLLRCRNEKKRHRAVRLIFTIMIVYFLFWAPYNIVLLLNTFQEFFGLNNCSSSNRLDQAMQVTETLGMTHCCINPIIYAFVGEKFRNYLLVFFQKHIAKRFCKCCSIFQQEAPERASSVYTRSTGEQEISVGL
Experimental: as §1

mouse CX3CR1 = target: T3, mouse CX3CR1 (mouse, UniProt Q9Z0D9 1-354); experiment: FACS binding on CHO cells expressing mouse CX3CR1, anti-cmyc detection
T3 construct: whole, on cells
T3 sequence (looked up): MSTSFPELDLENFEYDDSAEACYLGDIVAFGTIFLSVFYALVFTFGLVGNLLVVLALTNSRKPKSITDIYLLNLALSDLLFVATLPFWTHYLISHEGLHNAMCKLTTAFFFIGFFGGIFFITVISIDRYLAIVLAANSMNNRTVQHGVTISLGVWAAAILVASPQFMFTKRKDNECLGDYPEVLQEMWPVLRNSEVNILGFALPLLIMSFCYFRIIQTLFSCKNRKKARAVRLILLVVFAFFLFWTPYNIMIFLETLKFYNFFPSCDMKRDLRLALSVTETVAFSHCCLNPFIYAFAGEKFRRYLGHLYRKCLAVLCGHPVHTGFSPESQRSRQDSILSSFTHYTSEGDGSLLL
Experimental: as §1

human CX3CR1 [1] = target: T4, human CX3CR1 (human, UniProt P49238 1-355); experiment: competition FACS against labeled fractalkine, HEK 293-hCX3CR1 cells
T4 construct: Presented on BA/F3-hCX3CR1, CHO-hCX3CR1 or HEK 293-hCX3CR1 cells, depending on the assay; also called hCX3CR1
T4 sequence (looked up): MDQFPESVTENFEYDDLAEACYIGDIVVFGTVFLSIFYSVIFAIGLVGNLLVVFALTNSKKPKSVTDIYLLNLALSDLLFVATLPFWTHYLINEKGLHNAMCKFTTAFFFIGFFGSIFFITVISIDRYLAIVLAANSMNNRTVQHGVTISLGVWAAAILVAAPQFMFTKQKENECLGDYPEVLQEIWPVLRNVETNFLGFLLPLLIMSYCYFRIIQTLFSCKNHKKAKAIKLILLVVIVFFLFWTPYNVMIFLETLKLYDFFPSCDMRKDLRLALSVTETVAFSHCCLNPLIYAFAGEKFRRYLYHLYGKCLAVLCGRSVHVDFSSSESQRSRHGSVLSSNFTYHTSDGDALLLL

human CX3CR1 [2] = target: T4, human CX3CR1; experiment: competition FACS against labeled fractalkine, BA/F3-hCX3CR1 cells
human CX3CR1 [3] = target: T4, human CX3CR1; experiment: competition FACS against labeled fractalkine, CHO-hCX3CR1 cells
Experimental: Periplasmic extracts were screened in a human CX3CR1/human fractalkine FACS competition assay to assess the ability of the expressed VHHs to block the binding of the unique CX3CR1 ligand to the receptor. Human CX3CR1 was presented on CHO cells. As a detection reagent fractalkine (R&D Systems, Minneapolis, Minn., USA) labeled with Alexa Fluor 647 (A647-Fractalkine) at a degree of labeling of 1 was used. In brief, 50 μl of periplasmic extract was added to 6 nM labeled fractalkine (50 μl) and 2E5 CHO-hCX3CR1 cells. After one hour incubation at 4° C., cells were washed three times before analysis on a FACS Array (Becton Dickinson). First a gate was set on the intact cells as determined from the scatter profile. Next, dead cells were gated out by their fluorescence profile from the PI stain (Sigma, St Louis, US). The fluorescence profile from the Alexa Fluor 647 label was determined for each sample and used for the calculation of blocking capacity. As controls, conditions were taken along where there was no VHH present in the periplasmic extract or a known irrelevant VHH and samples were included with excess cold fractalkine. For each sample the percentage block was determined using the control samples to determine the assay window. […]

T1 sequence (P41597 whole entry): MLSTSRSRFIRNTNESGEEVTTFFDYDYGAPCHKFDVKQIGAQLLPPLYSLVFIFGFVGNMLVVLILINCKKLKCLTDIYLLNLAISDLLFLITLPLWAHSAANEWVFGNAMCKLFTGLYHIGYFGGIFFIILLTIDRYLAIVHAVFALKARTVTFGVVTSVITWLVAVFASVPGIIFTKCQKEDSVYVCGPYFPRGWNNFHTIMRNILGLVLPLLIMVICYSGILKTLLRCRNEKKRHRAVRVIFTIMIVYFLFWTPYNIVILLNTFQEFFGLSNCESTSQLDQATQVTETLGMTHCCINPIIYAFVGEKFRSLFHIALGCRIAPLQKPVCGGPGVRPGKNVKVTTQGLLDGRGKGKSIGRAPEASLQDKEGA

B1: CX3CR1BII316 (VHH)
VHH: EVQLVESGGGSVQAGESLRLSCAASGSIFSSNAMAWYRQAPPGKQRDLVALINSVGITKYADSVKGRFTISSDNAKNTVYLEMNSLKPEDTAVYYCTSDGRRGWDTRYWGQGTQVTVSS
notes: Expressed in E. coli TG1 as c-myc, His6-tagged protein
binding result (human CCR2): no binding
binding result (human CCR5): no binding
binding result (mouse CX3CR1): no binding
% Block (human CX3CR1 [1]): 94%
IC50 (human CX3CR1 [1]): 5.3 nM

B2: CX3CR1BII18E06 (VHH)
VHH: KVQLVESGGGLVQPGGSLRLSCATSGTIFSNNAMGWYRQAPGKKRDLVASISSSGSTNYADSVKGRFTVSRDNDKNTGYLQMNSLKPEDTGVYYCTLDARRGWNTAYWGQGAQVTVSS
notes: as for B1
binding result (human CCR2): no binding
binding result (human CCR5): no binding
IC50 (human CX3CR1 [2]): 2.8 nM
binding result (mouse CX3CR1): no binding

B3: CX3CR1BII317 (VHH)
chain: EVQLVESGGGLVQAGGSLRLSCVASGRTFSSYAMGWFRQAPGKERAFVAGISGSASRKYYADSVKGRFTVSRDNARNTVYLQMNSLKPEDTAVYYCAASNSYPKVQFDYYGQGTLVTVSSGGGGSGGGGSGGGGSGGGGSGGGGSGGGGSGGGGSEVQLVESGGGLVQAGGSLRLSCVASGRTFSSYAMGWFRQAPGKERAFVAGISGSASRKYYADSVKGRFTVSRDNARNTVYLQMNSLKPEDTAVYYCAASNSYPKVQFDYYGQGTLVTVSSAAAEQKLISEEDLNGAAHHHHHH
notes: Bivalent VHH (single polypeptide chain)
IC50 (human CX3CR1 [3]): 3.4 nM
binding result (human CCR2): no binding
binding result (human CCR5): no binding
binding result (mouse CX3CR1): no binding

B4: CX3CR1BII66B02 (VHH)
VHH: EVQLVESGGGSVQAGESLRLSCAASGSIFSSNAMAWYRQAPGKRRDLVAAINSVGVTKYADSVKGRFTISRDNAKNTVYLQMNSLKPEDTAVYYCTSDPRRGWDTRYWGQGTQVTVSS
notes: as for B1
binding result (human CCR2): no binding
binding result (human CCR5): no binding
binding result (mouse CX3CR1): no binding
% Block (human CX3CR1 [1]): 102%
IC50 (human CX3CR1 [1]): 2.5 nM

B5: CX3CR1BII318 (VHH)
chain: EVQLVESGGGSVQAGESLRLSCAASGSIFSSNAMAWYRQAPGKRRDLVAAINSVGVTKYADSVKGRFTISRDNAKNTVYLQMNSLKPEDTAVYYCTSDPRRGWDTRYWGQGTQVTVSSGGGGSGGGGSGGGGSGGGGSGGGGSGGGGSGGGGSEVQLVESGGGSVQAGESLRLSCAASGSIFSSNAMAWYRQAPGKRRDLVAAINSVGVTKYADSVKGRFTISRDNAKNTVYLQMNSLKPEDTAVYYCTSDPRRGWDTRYWGQGTQVTVSSAAAEQKLISEEDLNGAAHHHHHH
notes: as for B3
binding result (human CCR2): no binding
binding result (human CCR5): no binding
binding result (mouse CX3CR1): no binding
% Block (human CX3CR1 [1]): 102%
IC50 (human CX3CR1 [1]): 0.3 nM

B6: CX3CR1BII315 (VHH)
VHH: EVQLVESGGGLVQAGGSLRLSCVASGRTFSSYAMGWFRQAPGKERAFVAGISGSASRKYYADSVKGRFTVSRDNARNTVYLQMNSLKPEDTAVYYCAASNSYPKVQFDYYGQGTQVTVSS
notes: as for B1
binding result (human CCR2): no binding
binding result (human CCR5): no binding
IC50 (human CX3CR1 [2]): 8.1 nM
binding result (mouse CX3CR1): no binding
